# Measured values reported in patent US20230257435A1, “Wound Healing Composition and Uses Thereof” (AGENCY FOR SCIENCE, TECHNOLOGY AND RESEARCH, priority 2020, published 2023).
# Columns and labels:
# mouse keratinocytes = experiment: Cell stiffness by atomic force microscopy (AFM); format: cell-based
# Experimental: The stiffness of the mouse keratinocyte cells was measured using a Nanowizard IV BioAFM system (JPK Instruments, Germany). Confluent mouse kerantinocyte monolayers were cultured on a petri dish in PBS media. The monolayers were scratched across the center of the petri dish using a 100 μl pipette tip and characterised after 4 hrs. Indentations were performed on randomly selected cells at the wound edge with a polystyrene bead of diameter (˜4.5 μm) attached to the end of a cantilever (k=0.03 N/m, Novascan Technologies, Inc., Ames, Iowa) using a force of 3 nN at 1 Hz. More than 60 cells from triplicate experiments were characterized and averaged to evaluate the Young's modulus for each condition. Young's modulus values were calculated using JPK Data Processing Software (JPK Instruments, Germany), which employs Hertz's contact model for spherical indenters (diameter 4.5 μm; Poisson's ratio 0.5) fitted to the extend curves.
# MMP12 = MMP12 levels in HaCaT cells (Western blot / immunostaining); format: cell-based, human
# Experimental: (§1) Tissue culture plates were coated with Col-T-gel (Fischer Scientific) of stiffness ranging from 0.8 KPa (soft) to 30 KPa (stiff) as per manufacturer recommendations and allowed to solidify for 40 min at 37° C. inside tissue culture incubators. Some experiments were performed with cells seeded on the poly-hydrogel plates of defined stiffness: 0.2 kPa and 16 kPa soft and hard polyhydrogels, respectively (CytoSoft, Advanced Biomatrix, Inc.,). The determination of stiffness of silicone substrates were done by the manufacturer as per previously published protocols. For certain experiments, indicated amounts of sAgrin was incorporated into the 0.8 KPa collagen gels before gelation process. Upon gelation, trypsinized cells or excised mouse skin explants were plated onto the gels of different stiffness either alone or containing sAgrin. The cells/tissues were incubated under standard culture condition with 500 μl recommended culture medium for the indicated days. The crossbow shaped micropatterns with fibronectin coated islands were generated by microlithography on a 19.5×19.5 mm coverslide from Cytoo, Inc., France. The micropatterns had surface areas of 800μ^2 or 1600μ^2, respectively. Fifty thousand cells after initial siRNA treatment was placed on the micropatterns for 4-6 h before processing them for immunofluorescence. For some experiments, 10 μg/ml sAgrin was added on the slides 18 h prior to the addition of cells.
# Indicated cells post-manipulation were washed twice with cold Phosphate buffered saline (PBS) and lysed with cold 1% NP-40 lysis buffer supplemented with 1× protease inhibitor cocktail (Roche Applied Biosciences) for 15 mins at 4° C. The cell lysate was centrifuged at 13,000 rpm for 15 min. This was followed by protein estimation using Bradford reagent. Subsequently, […] of total protein was mixed with an equal volume of 2× Laemmli sample buffer and heated at 95° C. for 5 mins. This was followed by resolution with SDS-PAGE gel. The resolved proteins were transferred onto nitrocellulose membrane and blocked in 5% skimmed milk reconstituted in 1×PBS containing 0.1% Tween-20, and probed overnight with the respective primary antibody. The membrane was then washed with 1×PBS supplemented with 0.1% Tween-20: three times at 15 min intervals. This was followed by 1 h incubation in conjugated horseradish peroxidase HRP secondary antibody (Santa Cruz Biotechnology). […] The density of the various bands was quantified using the Image-J software.
# Cells were cultured on eight-well chamber slides or coverslips over-night. […] The images were processed and analyzed by Zen blue software. […]
# [1] = tested on: phosphorylated myosin light chain (pMLC); experiment: Actomyosin cables / pMLC activation after wound scratch; format: cell-based, human
# Experimental: Indicated cells post-manipulation were washed twice with cold Phosphate buffered saline (PBS) and lysed with cold 1% NP-40 lysis buffer supplemented with 1× protease inhibitor cocktail (Roche Applied Biosciences) for 15 mins at 4° C. The cell lysate was centrifuged at 13,000 rpm for 15 min. This was followed by protein estimation using Bradford reagent. Subsequently, […] of total protein was mixed with an equal volume of 2× Laemmli sample buffer and heated at 95° C. for 5 mins. This was followed by resolution with SDS-PAGE gel. The resolved proteins were transferred onto nitrocellulose membrane and blocked in 5% skimmed milk reconstituted in 1×PBS containing 0.1% Tween-20, and probed overnight with the respective primary antibody. The membrane was then washed with 1×PBS supplemented with 0.1% Tween-20: three times at 15 min intervals. This was followed by 1 h incubation in conjugated horseradish peroxidase HRP secondary antibody (Santa Cruz Biotechnology). Post-incubation, the blot was again washed three times as above and then overlaid with enhanced chemiluminescence (ECL) substrate (Pierce/Bio-Rad) and visualized on X-ray film by image processor or digitally by Chemidoc analyzer (Bio-Rad). The density of the various bands was quantified using the Image-J software.
# Cells were cultured on eight-well chamber slides or coverslips over-night. Cells were then washed twice with PBS and fixed for 15 min with 4% paraformaldehyde. Subsequently, the cells were permeabilized for 15 min with 0.1% Triton X in Phosphate buffered saline containing 1 mM Ca^+2 and 1 mM Mg^+2 (PBSCM) at room temperature. The permeabilized cells were incubated with indicated antibodies in fluorescent dilution buffer (FDB) for 1-2 h at RT or overnight at 4° C., followed by 5 washes with PBSCM and incubation with secondary antibody; Alexa Fluor (Thermo Fisher Scientific) for 1 h at RT. Slides were again washed five times with PBSCM and mounted with Vectashield medium containing DAPI. The stained cells were then imaged by a Zeiss confocal microscope. The images were processed and analyzed by Zen blue software. Intensity measurements were acquired using tool selection parameter in image analysis within the Zen blue software.
# A confluent monolayer of control and Agrin depleted cells in a 6-well plate was subjected to a unidirectional scratch using a 20 μl pipette tip. This was followed by washing with 1×PBS at room temperature and incubation in complete culture media at 37° C. and 5% CO2 with or without sAgrin used as indicated. Phase contrast images of the wound area were taken periodically at the indicated time-points. For some wound-healing migration assays, keratinocytes were cultured on either soft or stiff substrates within a stencil barrier (Nalge Nunc., Inc) for 18 h. Upon removal of the barrier, the cells were allowed to migrate and imaged using an Axiovert 200 inverted microscope at indicated time-points.
# HEK cells = experiment: Crossbow fibronectin micropatterns (geometric constraint); format: cell-based, human
# Experimental: as §1, with “For some experiments, 10 μg/ml sAgrin was added on the slides 18 h prior to the addition of cells.” left out
molecule,measurement,setting,value
"sAgrin: C-terminus recombinant Agrin fragment containing 8 amino acid 'Z8' insert and LG3 domain (SEQ ID NO: 7), His-tagged, expressed in E. coli (protein, His tag) DTLAFDGRTFVEYLNAVTESELANEIPVEKALQSNHFELSLRTEATQGLVLWSGKATERADYVALAIVDGHLQLSYNLGSQPVVLRSTVPVNTNRWLRVVAHREQREGSLQVGNEAPVTGSSPLGATQLDTDGALWLGGLPELPVGPALPKAYGTGFVGCLRDVVVGRHPLHLLEDAVTKPELRPCPTP",stiffness of migrating MMP12 knockdown keratinocytes,"mouse keratinocytes; 4 h post-injury, sAgrin treatment",not restored by sAgrin treatment
same,stiffness of migrating keratinocytes,"mouse keratinocytes; Agrin knockdown rescued with 10 μg/ml sAgrin, 4 h post-wound scratch, control ~2.1, knockdown ~0.9 KPa",~1.5 KPa
same,"MMP12 levels on soft matrix, exposure time series",MMP12; 10 μg/ml sAgrin,increased MMP12 levels
same,"MMP12 protein levels on soft substrates, concentration series","MMP12; 0.8 kPa, increasing sAgrin, 18 h",strongly stabilized MMP12 protein levels in a dose-dependent fashion
same,MMP12 and Agrin at the leading migrating front,"MMP12; 6 h post-wound scratch, sAgrin 10 μg/ml",further heightened
same,MMP12 levels in Agrin knockdown cells on stiff ECM,"MMP12; increasing sAgrin, 18 h, dose-dependent",restored their MMP12 levels
same,pMLC recruitment to wound edges,[1]; 10 μg/ml sAgrin 18 h,strong recruitment of pMLC to wound edges forming stable actomyosin cables
same,actomyosin cables in Agrin deprived cells,"[1]; 10 μg/ml sAgrin 18 h, within 4 h post-wounding",restored
same,actomyosin cable network in MMP12 suppressed cells,"[1]; MMP12 siRNA, 10 μg/ml sAgrin 18 h",did not restore actomyosin cable network
same,pMLC levels in MMP12 depleted keratinocytes,[1]; within 2 h post-wounding,unable to rescue the severely diminished pMLC levels
same,pMLC activation in Agrin depleted cells,"[1]; within 2 h post-wounding, sAgrin pre-treatment",restored
same,F-actin stress fibers and pMLC in small crossbow patterns,"HEK cells; 800μ^2 patterns, 20 μg/ml sAgrin",partially rescued F-actin stress fibers and higher pMLC recruitment to the transverse arc
same,stress fiber formation in large crossbow patterns,HEK cells; 1600μ^2 patterns,further accentuated
same,tension curvatures at transverse arcs,HEK cells; large crossbow patterns,significantly higher tension curvatures
same,F-actin stress fibers and pMLC in MMP12 knockdown cells,"HEK cells; large crossbow patterns, sAgrin nourishment",did not exhibit F-actin stress fibers and pMLC enrichment in the transverse arcs
same,tension signature in Agrin depleted cells,"HEK cells; sAgrin in FN crossbow matrix, large patterns",restored the tension signature of F-actin stress fiber network and pMLC enriched transverse arcs
